As a reminder, the Kd is the constant that tells how readily two partners part at equilibrium. As a reminder, the EC50 is the concentration giving half of the maximal effect. Lower therefore signals higher potency in that assay.

Assay [1] deals with T1, full-length human SIRPβL (NP_001129316.1) on cells (human, UniProt Q5TFQ8 30-398).
T1 construct: one molecule for U937 SIRPα-KO transfectants (NP_001129316.1) and Expi-CHO transfectants (Q5TFQ8); also called SIRPβ1v3; βL WT
Kind of assay: flow cytometry, U937 SIRPα-KO cells expressing full-length human SIRPβL. The method, then: Antibody binding to cells expressing full-length human SIRPβ1 (NP_006056.2) and SIRPβL (NP_001129316.1) is evaluated by flow cytometry. SIRPβ1- or SIRPβL-expressing U937^{SIRPα KO} cells are blocked with donkey IgG and incubated on ice with increasing concentrations of antibodies for 60 minutes, washed and stained with AF647-conjugated donkey F(ab′)₂ anti-human IgG secondary reagent. Cells are washed, fixed, and analyzed by flow cytometry. Median fluorescent intensity is determined and used as a measure of antibody binding.

The target of assay [2] is T2, mouse SIRPα extracellular domain + His-tag (NP_031573) (mouse, UniProt P97797 32-373).
T2 chain: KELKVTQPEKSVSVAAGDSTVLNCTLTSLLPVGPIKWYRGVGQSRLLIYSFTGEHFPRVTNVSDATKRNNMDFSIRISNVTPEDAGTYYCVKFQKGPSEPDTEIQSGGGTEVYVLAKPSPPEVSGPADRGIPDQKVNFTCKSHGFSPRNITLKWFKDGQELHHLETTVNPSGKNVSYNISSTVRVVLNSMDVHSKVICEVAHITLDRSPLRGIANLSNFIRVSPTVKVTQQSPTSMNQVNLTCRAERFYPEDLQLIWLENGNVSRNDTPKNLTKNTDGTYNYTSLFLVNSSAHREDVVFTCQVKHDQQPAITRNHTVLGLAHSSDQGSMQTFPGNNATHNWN
Kind of assay: SPR, Ab captured, ECD-His analyte. An outline of the steps: (§1)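 SPR; Ab capture surface, ethanolamine-deactivated (1M, 420 s, 10 μl/min). Analyte: SIRP ECD+His, 2-fold dilution series in 1×HBS-EP+. Inject 300 s @ 30 μl/min; dissoc. 600 s.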
Background: SPR reads the build-up and loss of mass on a sensor chip optically.

Assay [3] deals with T3, cynomolgus SIRPα extracellular domain + His-tag (NP_001271679) (cynomolgus monkey).
T3 construct: also called CySIRPα NP_001271679; cynoSIRPα
T3 chain: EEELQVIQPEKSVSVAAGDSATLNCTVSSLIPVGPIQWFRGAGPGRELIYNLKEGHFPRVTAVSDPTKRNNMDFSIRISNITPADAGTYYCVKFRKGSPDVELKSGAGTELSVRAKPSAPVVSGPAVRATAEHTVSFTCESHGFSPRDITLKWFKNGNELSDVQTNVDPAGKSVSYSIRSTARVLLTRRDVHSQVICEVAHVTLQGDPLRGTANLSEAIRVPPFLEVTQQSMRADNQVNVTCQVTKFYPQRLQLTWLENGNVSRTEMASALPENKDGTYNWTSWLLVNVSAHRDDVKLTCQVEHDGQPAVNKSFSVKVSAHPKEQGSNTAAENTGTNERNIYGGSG
Kind of assay: SPR, Ab captured, ECD-His analyte. A digest of the protocol: as §1

The target of assay [4] is T4, cynomolgus SIRPα extracellular domain + His-tag (EGM_02252) (cynomolgus monkey).
T4 construct: also called CySIRPα EGM_02252; cynoSIRPα
T4 chain: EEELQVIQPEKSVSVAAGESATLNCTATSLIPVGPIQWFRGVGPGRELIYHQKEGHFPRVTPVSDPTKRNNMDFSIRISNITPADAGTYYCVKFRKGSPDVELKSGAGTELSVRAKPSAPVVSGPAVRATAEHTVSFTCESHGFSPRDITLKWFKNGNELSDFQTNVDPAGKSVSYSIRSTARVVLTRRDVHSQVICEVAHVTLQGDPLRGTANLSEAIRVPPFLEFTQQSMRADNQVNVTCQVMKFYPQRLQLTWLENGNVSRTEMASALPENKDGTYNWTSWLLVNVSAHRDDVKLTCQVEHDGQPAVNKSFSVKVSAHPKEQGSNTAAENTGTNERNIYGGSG
In words: SPR, Ab captured, ECD-His analyte. An outline of the steps:
as §1

The target of assay [5] is T5, cynomolgus SIRPβ1v3 extracellular domain + His-tag (XP_005568593) (cynomolgus monkey).
T5 construct: also called Cyno SIRPβ1v3; cynoSIRPβ1v3
T5 chain: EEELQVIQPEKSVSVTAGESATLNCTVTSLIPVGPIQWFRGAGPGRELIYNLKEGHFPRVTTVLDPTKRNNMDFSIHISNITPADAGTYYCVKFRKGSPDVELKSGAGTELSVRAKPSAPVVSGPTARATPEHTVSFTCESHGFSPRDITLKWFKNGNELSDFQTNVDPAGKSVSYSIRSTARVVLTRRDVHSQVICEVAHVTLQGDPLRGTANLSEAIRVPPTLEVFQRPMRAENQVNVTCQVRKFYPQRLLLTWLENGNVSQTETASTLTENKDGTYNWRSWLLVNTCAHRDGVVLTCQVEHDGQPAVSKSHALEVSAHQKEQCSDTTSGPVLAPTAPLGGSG
In words: SPR, Ab captured, ECD-His analyte. An outline of the steps: as §1

Assay [6] has as its target T6, full-length human SIRPγ (NP_061026.2) on cells (human, UniProt Q9P1W8 29-387).
T6 construct: on CHO and Expi-CHO cells; endogenous on primary human CD3+ T cells; also called γ WT
In words: flow cytometry, primary human CD3+ T cells. A digest of the protocol: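 PBMCs blocked with donkey IgG were incubated on ice for 60 min with increasing antibody concentrations, then detected with AF647 donkey F(ab′)₂ anti-human IgG. After fixation, median fluorescence intensity of the gated CD3+ population served as the binding measure.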
In general terms: Flow cytometry measures light scatter and fluorescence of single cells or particles in a stream.

For assay [7], the target named is T7, full-length human SIRPβ1 D→H on Expi-CHO cells (human, UniProt O00241 30-398).
T7 construct: the entry already carries the change (PDDV to PDHV)
In words: flow cytometry, Expi-CHO cells. How it is done:
These cells are blocked with donkey IgG and incubated on ice with increasing concentrations of antibodies for 60 minutes, washed and stained with AF647-conjugated donkey F(ab′)₂ anti-human IgG antibodies. Stained cells are washed, fixed, and analyzed by flow cytometry. Median fluorescent intensity is determined and used as a measure of antibody binding.

T1 sequence (Q5TFQ8 30-398): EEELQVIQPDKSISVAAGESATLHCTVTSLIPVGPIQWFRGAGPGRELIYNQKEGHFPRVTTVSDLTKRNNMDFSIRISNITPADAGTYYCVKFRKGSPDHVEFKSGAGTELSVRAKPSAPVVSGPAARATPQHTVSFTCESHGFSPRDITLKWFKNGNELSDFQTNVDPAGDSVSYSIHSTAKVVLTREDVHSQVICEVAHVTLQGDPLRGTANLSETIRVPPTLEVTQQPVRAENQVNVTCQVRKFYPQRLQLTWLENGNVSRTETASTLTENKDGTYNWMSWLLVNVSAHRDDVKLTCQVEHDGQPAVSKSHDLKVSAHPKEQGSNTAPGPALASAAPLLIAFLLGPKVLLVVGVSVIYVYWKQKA
T7 sequence (O00241 30-398 D130H): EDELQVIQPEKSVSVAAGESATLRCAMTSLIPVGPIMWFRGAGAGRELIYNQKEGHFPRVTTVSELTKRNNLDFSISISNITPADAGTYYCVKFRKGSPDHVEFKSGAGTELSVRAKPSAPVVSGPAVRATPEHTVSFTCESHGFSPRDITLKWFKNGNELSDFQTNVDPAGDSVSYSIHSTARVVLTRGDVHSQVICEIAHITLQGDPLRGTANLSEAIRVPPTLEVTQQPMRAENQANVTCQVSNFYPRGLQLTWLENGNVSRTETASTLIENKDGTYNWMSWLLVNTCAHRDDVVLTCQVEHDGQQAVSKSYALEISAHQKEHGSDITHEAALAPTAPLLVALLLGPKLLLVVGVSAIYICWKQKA
T6 sequence (Q9P1W8 29-387): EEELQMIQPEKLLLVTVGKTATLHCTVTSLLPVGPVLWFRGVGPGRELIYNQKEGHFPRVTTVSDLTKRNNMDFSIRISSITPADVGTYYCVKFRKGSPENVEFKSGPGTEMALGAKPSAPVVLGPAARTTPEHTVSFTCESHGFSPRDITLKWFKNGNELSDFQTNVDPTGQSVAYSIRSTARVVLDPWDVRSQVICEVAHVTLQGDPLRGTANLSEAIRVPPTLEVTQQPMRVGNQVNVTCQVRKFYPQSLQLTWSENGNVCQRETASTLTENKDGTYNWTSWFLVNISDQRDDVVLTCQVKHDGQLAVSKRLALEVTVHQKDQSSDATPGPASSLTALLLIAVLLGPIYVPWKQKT

B1: Antibody A (antibody, human IgG1, kappa, L234A L235A)
heavy: not shown
light: DIQMTQSPSSLSASVGDRVTITCRASQDINNYLAWFQQKPGKAPKSLIYTASSLHSGVPSKFSGSGSGTDFTLTISSLQPEDFATYYCQQYVSYPYTFGQGTKLEIKRTVAAPSVFIFPPSDEQLKSGTASVVCLLNNFYPREAKVQWKVDNALQSGNSQESVTEQDSKDSTYSLSSTLTLSKADYEKHKVYACEVTHQGLSSPVTKSFNRGEC
As for B1, the binding result in assay [1] is “no binding (tested: about 200 nM)”.

B2: Antibody A (antibody, human IgG1, kappa, L234A L235A)
heavy: not shown
light: B1 light
As for B2, in assay [2], the binding result is “no binding”. In addition, the Kd in assay [3] was determined as 453 nM; in assay [4], 201 nM; in assay [5] it was 201 nM.

B3: Antibody A10 (antibody, human IgG1, kappa, L234A L235A)
heavy: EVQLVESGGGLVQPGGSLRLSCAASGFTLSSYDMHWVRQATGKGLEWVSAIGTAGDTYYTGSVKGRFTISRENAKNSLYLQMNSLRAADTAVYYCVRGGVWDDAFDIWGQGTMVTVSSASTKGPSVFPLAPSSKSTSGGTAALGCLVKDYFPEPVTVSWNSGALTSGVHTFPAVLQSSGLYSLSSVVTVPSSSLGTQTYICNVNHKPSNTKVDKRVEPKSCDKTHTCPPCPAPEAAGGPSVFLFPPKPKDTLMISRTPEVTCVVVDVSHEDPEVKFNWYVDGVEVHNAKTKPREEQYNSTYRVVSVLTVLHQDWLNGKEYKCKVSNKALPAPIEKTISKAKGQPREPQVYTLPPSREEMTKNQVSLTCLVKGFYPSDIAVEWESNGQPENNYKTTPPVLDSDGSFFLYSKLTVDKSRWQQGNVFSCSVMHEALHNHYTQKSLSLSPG
light: B1 light
For the molecule B3, the binding result in assay [6] is “no binding”.

B4: Anti-SIRPα antibody KWAR23 (antibody, V domains shown)
VH: EVQLQQSGAELVKPGASVKLSCTASGFNIKDYYIHWVQQRTEQGLEWIGRIDPEDGETKYAPKFQDKATITADTSSNTAYLHLSSLTSEDTAVYYCARWGAYWGQGTLVTVSS
VL: QIVLTQSPAIMSASPGEKVTLTCSASSSVSSSYLYWYQQKPGSSPKLWIYSTSNLASGVPARFSGSGSGTSYSLTISSMEAEDAASYFCHQWSSYPRTFGAGTKLELK
In assay [7], B4 had an EC50 of 0.01 nM.

The values are drawn from US20230012273A1 (Boehringer Ingelheim, published 2023).
